# B1: Antiviral innate immune response effector IFIT1 (Homo sapiens), P09914 (parent)
# chain: MSTNGDDHQVKDSLEQLRCHFTWELSIDDDEMPDLENRVLDQIEFLDTKYSVGIHNLLAYVKHLKGQNEEALKSLKEAENLMQEEHDNQANVRSLVTWGNFAWMYYHMGRLAEAQTYLDKVENICKKLSNPFRYRMECPEIDCEEGWALLKCGGKNYERAKACFEKVLEVDPENPESSAGYAISAYRLDGFKLATKNHKPFSLLPLRQAVRLNPDNGYIKVLLALKLQDEGQEAEGEKYIEEALANMSSQTYVFRYAAKFYRRKGSVDKALELLKKALQETPTSVLLHHQIGLCYKAQMIQIKEATKGQPRGQNREKLDKMIRSAIFHFESAVEKKPTFEVAHLDLARMYIEAGNHRKAEENFQKLLCMKPVVEETMQDIHFHYGRFQEFQKKSDVNAIIHYLKAIKIEQASLTRDKSINSLKKLVLRKLRRKALDLESLSLLGFVYKLEGNMNEALEYYERALRLAADFENSVRQGP
# partner: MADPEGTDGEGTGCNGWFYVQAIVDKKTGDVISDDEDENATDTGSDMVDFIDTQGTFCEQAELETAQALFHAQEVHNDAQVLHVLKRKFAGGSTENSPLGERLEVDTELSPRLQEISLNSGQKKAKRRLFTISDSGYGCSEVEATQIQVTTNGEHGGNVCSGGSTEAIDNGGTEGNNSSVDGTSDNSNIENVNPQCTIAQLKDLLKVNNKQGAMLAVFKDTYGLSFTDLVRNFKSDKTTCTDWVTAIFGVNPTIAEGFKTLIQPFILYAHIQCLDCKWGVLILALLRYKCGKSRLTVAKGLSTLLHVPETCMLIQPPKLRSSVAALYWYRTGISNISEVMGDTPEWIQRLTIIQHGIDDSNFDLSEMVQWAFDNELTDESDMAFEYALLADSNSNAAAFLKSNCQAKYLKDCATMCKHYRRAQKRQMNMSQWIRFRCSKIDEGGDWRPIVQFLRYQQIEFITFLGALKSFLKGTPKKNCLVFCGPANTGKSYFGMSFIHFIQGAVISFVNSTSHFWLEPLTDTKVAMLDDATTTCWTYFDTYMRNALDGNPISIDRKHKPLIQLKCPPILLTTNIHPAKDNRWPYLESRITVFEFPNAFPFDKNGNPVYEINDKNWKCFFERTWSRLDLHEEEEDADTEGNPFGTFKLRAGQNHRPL
# Variants of: B1
# Conditions: with ve1_hpv18 E1, P06789
row,Variant,effect of a mutation on the interaction
1,MSTNGDDHQVKDSLEQLRCHFTWELSIDDDEMPDLENRVLDQIEFLDTKYSVGIHNLLAYVKHLKGQNEEALKSLKEAENLMQEEHDNQANVRSLVTWGNFAWMYYHMGRLAEAQTYRDKVENICKKLSNPFRYRMECPEIDCEEGWALLKCGGKNYERAKACFEKVLEVDPENPESSAGYAISAYRLDGFKLATKNHKPFSLLPLRQAVRLNPDNGYIKVLLALKLQDEGQEAEGEKYIEEALANMSSQTYVFRYAAKFYRRKGSVDKALELLKKALQETPTSVLLHHQIGLCYKAQMIQIKEATKGQPRGQNREKLDKMIRSAIFHFESAVEKKPTFEVAHLDLARMYIEAGNHRKAEENFQKLLCMKPVVEETMQDIHFHYGRFQEFQKKSDVNAIIHYLKAIKIEQASLTRDKSINSLKKLVLRKLRRKALDLESLSLLGFVYKLEGNMNEALEYYERALRLAADFENSVRQGP [L118R],disrupting interaction
2,MSTNGDDHQVKDSLEQLRCHFTWELSIDDDEMPDLENRVLDQIEFLDTKYSVGIHNLLAYVKHLKGQNEEALKSLKEAENLMQEEHDNQANVRSLVTWGNFAWMYYHMGRLAEAQTYLDKEENICKKLSNPFRYRMECPEIDCEEGWALLKCGGKNYERAKACFEKVLEVDPENPESSAGYAISAYRLDGFKLATKNHKPFSLLPLRQAVRLNPDNGYIKVLLALKLQDEGQEAEGEKYIEEALANMSSQTYVFRYAAKFYRRKGSVDKALELLKKALQETPTSVLLHHQIGLCYKAQMIQIKEATKGQPRGQNREKLDKMIRSAIFHFESAVEKKPTFEVAHLDLARMYIEAGNHRKAEENFQKLLCMKPVVEETMQDIHFHYGRFQEFQKKSDVNAIIHYLKAIKIEQASLTRDKSINSLKKLVLRKLRRKALDLESLSLLGFVYKLEGNMNEALEYYERALRLAADFENSVRQGP [V121E],disrupting interaction
3,MSTNGDDHQVKDSLEQLRCHFTWELSIDDDEMPDLENRVLDQIEFLDTKYSVGIHNLLAYVKHLKGQNEEALKSLKEAENLMQEEHDNQANVRSLVTWGNFAWMYYHMGRLAETQTYLDKVENICKKLSNPFRYRMECPEIDCEEGWALLKCGGKNYERAKACFEKVLEVDPENPESSAGYAISAYRLDGFKLATKNHKPFSLLPLRQAVRLNPDNGYIKVLLALKLQDEGQEAEGEKYIEEALANMSSQTYVFRYAAKFYRRKGSVDKALELLKKALQETPTSVLLHHQIGLCYKAQMIQIKEATKGQPRGQNREKLDKMIRSAIFHFESAVEKKPTFEVAHLDLARMYIEAGNHRKAEENFQKLLCMKPVVEETMQDIHFHYGRFQEFQKKSDVNAIIHYLKAIKIEQASLTRDKSINSLKKLVLRKLRRKALDLESLSLLGFVYKLEGNMNEALEYYERALRLAADFENSVRQGP [A114T],disrupting interaction
